Experiments:
Details in all cases: both partners purified
[1] = target: T1, Flag-tagged Pds5b (wild type) from cells co-expressing Δ86-cyclin A2 (human, UniProt Q9NTI5 1-1447, phosphoserine at 1161 and 1166 (by Cdk1/2-cyclin A2)); test: pull-down; Flag-Pds5a or -b affinity-purified on anti-Flag beads from chromatin-free lysates of taxol-arrested Hek293T cells (expressed alone or with Nek2aΔMR and/or Δ86-cyclin A2); beads incubated with a mixture of recombinant Wapl (2 µl) and sororin (0.3 µg) in 15 µl cleavage buffer with kinase inhibitors, 20 min at 37 °C; bound and unbound fractions by immunoblotting
T1 construct: Pds5b, human; insert by PCR on human cDNA; their state in this preparation was not measured; source: Hek293T co-expressing eGFP-Δ86-cyclin A2, taxol-arrested
T1 sequence (looked up): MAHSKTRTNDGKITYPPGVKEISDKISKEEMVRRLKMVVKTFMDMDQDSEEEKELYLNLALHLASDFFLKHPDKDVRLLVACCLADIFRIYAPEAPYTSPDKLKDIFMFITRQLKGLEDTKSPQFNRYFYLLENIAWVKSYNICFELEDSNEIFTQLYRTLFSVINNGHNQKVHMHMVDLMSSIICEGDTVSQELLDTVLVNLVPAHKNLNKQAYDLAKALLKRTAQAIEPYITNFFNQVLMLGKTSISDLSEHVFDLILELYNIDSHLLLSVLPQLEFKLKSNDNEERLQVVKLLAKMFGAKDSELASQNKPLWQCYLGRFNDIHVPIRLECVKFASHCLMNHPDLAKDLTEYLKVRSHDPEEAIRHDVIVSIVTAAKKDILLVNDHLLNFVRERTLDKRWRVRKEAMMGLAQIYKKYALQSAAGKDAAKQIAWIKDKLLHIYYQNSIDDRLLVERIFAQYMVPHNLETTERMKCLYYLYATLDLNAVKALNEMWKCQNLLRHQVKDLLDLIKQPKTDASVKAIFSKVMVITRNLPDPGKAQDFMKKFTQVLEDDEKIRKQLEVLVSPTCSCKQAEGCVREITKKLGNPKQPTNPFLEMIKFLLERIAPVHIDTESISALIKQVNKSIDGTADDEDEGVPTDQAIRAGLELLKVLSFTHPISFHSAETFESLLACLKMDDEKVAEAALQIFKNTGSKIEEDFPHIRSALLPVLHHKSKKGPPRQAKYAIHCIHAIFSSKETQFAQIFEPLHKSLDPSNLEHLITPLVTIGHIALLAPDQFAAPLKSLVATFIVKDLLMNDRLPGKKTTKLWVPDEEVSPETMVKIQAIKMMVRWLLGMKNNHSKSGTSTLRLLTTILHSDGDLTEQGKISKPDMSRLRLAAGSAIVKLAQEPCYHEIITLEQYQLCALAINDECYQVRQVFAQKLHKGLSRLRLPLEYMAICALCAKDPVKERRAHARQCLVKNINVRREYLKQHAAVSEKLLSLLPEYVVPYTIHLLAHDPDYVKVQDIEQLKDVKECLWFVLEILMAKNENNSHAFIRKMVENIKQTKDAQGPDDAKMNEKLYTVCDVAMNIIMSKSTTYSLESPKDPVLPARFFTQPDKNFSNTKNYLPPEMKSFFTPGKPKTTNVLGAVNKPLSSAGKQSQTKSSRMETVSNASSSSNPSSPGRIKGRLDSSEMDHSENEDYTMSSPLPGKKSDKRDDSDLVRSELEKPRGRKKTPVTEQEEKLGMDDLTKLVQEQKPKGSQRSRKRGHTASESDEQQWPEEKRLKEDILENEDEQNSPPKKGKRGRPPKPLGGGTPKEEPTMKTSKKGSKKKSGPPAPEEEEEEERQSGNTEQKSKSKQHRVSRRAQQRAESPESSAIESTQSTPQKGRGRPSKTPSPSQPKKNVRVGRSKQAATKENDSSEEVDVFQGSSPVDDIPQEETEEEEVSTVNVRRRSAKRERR

[2] = target: T2, Flag-tagged Pds5b (wild type) from cells co-expressing Nek2aΔMR (human, UniProt Q9NTI5 1-1447, phosphoserine at 1177, 1182 and 1209 (by Nek2a)); test: as above
T2 construct: Pds5b, human; insert by PCR on human cDNA; their state in this preparation was not measured; source: Hek293T co-expressing eGFP-Nek2aΔMR, taxol-arrested
T2 sequence (looked up): T1 sequence (looked up)

[3] = target: T3, Flag-tagged Pds5b (wild type) phosphorylated by Nek2a and Cdk1/2-cyclin A2 (human, UniProt Q9NTI5 1-1447, phosphoserine at 1161 and 1166 (by Cdk1/2-cyclin A2) and at 1177, 1182 and 1209 (by Nek2a)); test: pull-down; Flag-Pds5b variants affinity-purified from Nek2a- and cyclin A2-free prometaphase cells, incubated on the beads with recombinant Nek2a and/or Cdk1/2-cyclin A2 and ATP, washed, then incubated with recombinant Wapl (2 µl) and sororin (0.3 µg) in 15 µl cleavage buffer without ATP, 20 min at 37 °C; immunoblotting
T3 construct: Pds5b, human; insert by PCR on human cDNA; How fully each site was phosphorylated in these preparations was not measured; also called Pds5b-WT treated with these two kinases; Pds5b co-expressed with Nek2aΔMR and Δ86-cyclin A2
T3 sequence (looked up): T1 sequence (looked up)

Measured: binding result

B1: recombinant human Wapl (natural protein, UniProt Q7Z5K2 1-1190, looked up)
chain: MTSRFGKTYSRKGGNGSSKFDEVFSNKRTTLSTKWGETTFMAKLGQKRPNFKPDIQEIPKKPKVEEESTGDPFGFDSDDESLPVSSKNLAQVKCSSYSESSEAAQLEEVTSVLEANSKISHVVVEDTVVSDKCFPLEDTLLGKEKSTNRIVEDDASISSCNKLITSDKVENFHEEHEKNSHHIHKNADDSTKKPNAETTVASEIKETNDTWNSQFGKRPESPSEISPIKGSVRTGLFEWDNDFEDIRSEDCILSLDSDPLLEMKDDDFKNRLENLNEAIEEDIVQSVLRPTNCRTYCRANKTKSSQGASNFDKLMDGTSQALAKANSESSKDGLNQAKKGGVSCGTSFRGTVGRTRDYTVLHPSCLSVCNVTIQDTMERSMDEFTASTPADLGEAGRLRKKADIATSKTTTRFRPSNTKSKKDVKLEFFGFEDHETGGDEGGSGSSNYKIKYFGFDDLSESEDDEDDDCQVERKTSKKRTKTAPSPSLQPPPESNDNSQDSQSGTNNAENLDFTEDLPGVPESVKKPINKQGDKSKENTRKIFSGPKRSPTKAVYNARHWNHPDSEELPGPPVVKPQSVTVRLSSKEPNQKDDGVFKAPAPPSKVIKTVTIPTQPYQDIVTALKCRREDKELYTVVQHVKHFNDVVEFGENQEFTDDIEYLLSGLKSTQPLNTRCLSVISLATKCAMPSFRMHLRAHGMVAMVFKTLDDSQHHQNLSLCTAALMYILSRDRLNMDLDRASLDLMIRLLELEQDASSAKLLNEKDMNKIKEKIRRLCETVHNKHLDLENITTGHLAMETLLSLTSKRAGDWFKEELRLLGGLDHIVDKVKECVDHLSRDEDEEKLVASLWGAERCLRVLESVTVHNPENQSYLIAYKDSQLIVSSAKALQHCEELIQQYNRAEDSICLADSKPLPHQNVTNHVGKAVEDCMRAIIGVLLNLTNDNEWGSTKTGEQDGLIGTALNCVLQVPKYLPQEQRFDIRVLGLGLLINLVEYSARNRHCLVNMETSCSFDSSICSGEGDDSLRIGGQVHAVQALVQLFLERERAAQLAESKTDELIKDAPTTQHDKSGEWQETSGEIQWVSTEKTDGTEEKHKKEEEDEELDLNKALQHAGKHMEDCIVASYTALLLGCLCQESPINVTTVREYLPEGDFSIMTEMLKKFLSFMNLTCAVGTTGQKSISRVIEYLEHC
notes: Wapl, human; insert by PCR on human cDNA; Isolated from mitotically arrested cells; also called GFP-SUMOstar-Wapl; source: Hek293T, transiently transfected, taxol-arrested; not shown: GFP, N-terminal, cleaved; SUMOstar, N-terminal, cleaved
binds: all assays above
